Experimental data reported in US20220195407, “OPTIMIZATION OF ENGINEERED MEGANUCLEASES FOR RECOGNITION SEQUENCES” (Precision BioSciences, Inc., published 2022).

Columns and labels:
Assay in all cases: cell_activity; CHO iGFFP reporter
LOX 3-4m.1601 = target: T1, LOX 3-4m.1601 (artificial (I-CreI derived))
T1 chain: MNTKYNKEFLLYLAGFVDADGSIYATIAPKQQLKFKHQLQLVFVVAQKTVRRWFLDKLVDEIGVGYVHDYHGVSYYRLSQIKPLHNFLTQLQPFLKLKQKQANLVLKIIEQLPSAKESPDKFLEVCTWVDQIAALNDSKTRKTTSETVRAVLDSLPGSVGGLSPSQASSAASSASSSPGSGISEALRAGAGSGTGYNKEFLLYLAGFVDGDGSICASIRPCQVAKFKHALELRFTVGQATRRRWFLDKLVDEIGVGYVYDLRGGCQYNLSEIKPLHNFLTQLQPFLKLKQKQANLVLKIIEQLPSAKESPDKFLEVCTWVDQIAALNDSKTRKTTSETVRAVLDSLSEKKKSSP
Excerpt: (§1) A CHO cell reporter system (see WO/2012/167192, FIG. 3) was used to determine whether the engineered meganucleases generated in these studies could recognize and cleave the modified LOX 3-4 recognition sequences in Table 87. To perform the assay, a pair of CHO cell reporter lines were produced, which carried a non-functional Green Fluorescent Protein (GFP) gene expression cassette integrated into the genome of the cell. The GFP gene in each cell line was interrupted by a pair of recognition sequences such that intracellular cleavage of either recognition sequence by a meganuclease would stimulate a homologous recombination event resulting in a functional GFP gene. In both cell lines, one of the recognition sequences was derived from the LOX 3-4 recognition sequence (i.e., those sequences disclosed in Table 87), and the second recognition sequence was specifically recognized by a control meganuclease called “CHO 23/24.” CHO reporter cells comprising a recognition sequence derived from the LOX 3-4 recognition sequence and the CHO 23/24 recognition sequence are referred to herein as “test cells.”
(§2) Novel engineered meganucleases derived from the LOX 3-4x.109 meganuclease were prepared by making amino acid substitutions at one or more positions in the first subunit and one or more positions in the second subunit. These engineered meganucleases were then evaluated for cleavage of the LOX 3-4 recognition sequence modified to have a GCAT center sequence (SEQ ID NO: 292) in the CHO reporter assay according to Example 1. The substitutions in each subunit are provided in Tables 151 and 152, respectively. Novel meganucleases which were modified to comprise the residues recited in the tables below continued to cleave the LOX 3-4 recognition sequence having a GCAT four base pair center sequence.

LOX 3-4m.1687 = target: T2, LOX 3-4m.1687 (artificial (I-CreI derived))
T2 chain: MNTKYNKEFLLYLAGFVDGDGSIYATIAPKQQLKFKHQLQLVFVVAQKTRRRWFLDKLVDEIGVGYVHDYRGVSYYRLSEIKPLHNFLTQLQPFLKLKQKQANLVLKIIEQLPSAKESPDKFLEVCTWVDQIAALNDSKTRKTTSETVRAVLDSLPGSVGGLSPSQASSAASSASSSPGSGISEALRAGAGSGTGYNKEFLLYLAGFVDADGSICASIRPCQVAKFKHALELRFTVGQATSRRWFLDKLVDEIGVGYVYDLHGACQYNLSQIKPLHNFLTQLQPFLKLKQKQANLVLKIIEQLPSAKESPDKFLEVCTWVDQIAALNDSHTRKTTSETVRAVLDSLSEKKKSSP
Excerpt: as §1, §2

LOX 3-4m.1679 = target: T3, LOX 3-4m.1679 (artificial (I-CreI derived))
T3 chain: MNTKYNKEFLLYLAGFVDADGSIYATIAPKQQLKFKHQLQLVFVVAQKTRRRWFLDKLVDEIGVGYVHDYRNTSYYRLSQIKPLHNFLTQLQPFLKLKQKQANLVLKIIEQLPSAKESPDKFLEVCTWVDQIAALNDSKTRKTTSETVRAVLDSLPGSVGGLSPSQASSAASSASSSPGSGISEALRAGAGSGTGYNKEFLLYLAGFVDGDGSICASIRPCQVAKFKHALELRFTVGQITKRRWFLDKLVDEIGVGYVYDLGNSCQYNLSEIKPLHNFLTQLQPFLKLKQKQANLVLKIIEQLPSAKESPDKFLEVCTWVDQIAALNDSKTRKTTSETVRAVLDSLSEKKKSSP
Excerpt: as §1, §2

LOX 3-4m.1689 = target: T4, LOX 3-4m.1689 (artificial (I-CreI derived))
T4 chain: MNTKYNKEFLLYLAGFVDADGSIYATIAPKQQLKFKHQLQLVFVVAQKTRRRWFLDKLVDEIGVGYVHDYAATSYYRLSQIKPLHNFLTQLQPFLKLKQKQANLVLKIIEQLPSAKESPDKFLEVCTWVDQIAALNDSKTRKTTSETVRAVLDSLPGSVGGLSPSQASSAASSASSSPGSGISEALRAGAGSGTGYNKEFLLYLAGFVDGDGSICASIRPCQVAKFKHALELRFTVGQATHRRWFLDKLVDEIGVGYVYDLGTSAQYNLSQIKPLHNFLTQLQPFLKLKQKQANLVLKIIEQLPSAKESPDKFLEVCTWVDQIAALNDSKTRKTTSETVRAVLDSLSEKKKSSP
Excerpt: as §1, §2

LOX 3-4m.1781 = target: T5, LOX 3-4m.1781 (artificial (I-CreI derived))
T5 chain: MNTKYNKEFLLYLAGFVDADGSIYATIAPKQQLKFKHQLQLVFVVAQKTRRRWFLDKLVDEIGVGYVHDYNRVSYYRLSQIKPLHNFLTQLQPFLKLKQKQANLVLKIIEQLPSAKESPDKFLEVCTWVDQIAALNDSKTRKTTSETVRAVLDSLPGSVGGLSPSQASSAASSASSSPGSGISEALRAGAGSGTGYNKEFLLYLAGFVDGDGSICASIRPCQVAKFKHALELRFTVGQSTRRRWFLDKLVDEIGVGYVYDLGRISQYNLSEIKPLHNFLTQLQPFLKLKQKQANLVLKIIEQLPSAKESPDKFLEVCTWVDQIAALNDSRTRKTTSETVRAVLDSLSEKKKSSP
Excerpt: as §1
(§3) Novel engineered meganucleases derived from the LOX 3-4x.109 meganuclease were prepared by making amino acid substitutions at one or more positions in the first subunit and one or more positions in the second subunit. These engineered meganucleases were then evaluated for cleavage of the LOX 3-4 recognition sequence modified to have a GCGA center sequence (SEQ ID NO: 314) in the CHO reporter assay according to Example 1.

LOX 3-4m.1745 = target: T6, LOX 3-4m.1745 (artificial (I-CreI derived))
T6 chain: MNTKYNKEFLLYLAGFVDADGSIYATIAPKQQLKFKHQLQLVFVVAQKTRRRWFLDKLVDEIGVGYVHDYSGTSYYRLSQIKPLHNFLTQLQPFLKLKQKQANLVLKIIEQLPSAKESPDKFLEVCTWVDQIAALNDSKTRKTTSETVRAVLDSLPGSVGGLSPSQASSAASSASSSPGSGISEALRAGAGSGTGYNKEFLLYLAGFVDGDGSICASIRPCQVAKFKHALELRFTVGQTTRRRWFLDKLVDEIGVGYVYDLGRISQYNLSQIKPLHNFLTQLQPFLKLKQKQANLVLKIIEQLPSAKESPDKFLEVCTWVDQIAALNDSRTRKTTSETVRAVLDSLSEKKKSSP
Excerpt: as §1, §3

LOX 3-4m.1780 = target: T7, LOX 3-4m.1780 (artificial (I-CreI derived))
T7 chain: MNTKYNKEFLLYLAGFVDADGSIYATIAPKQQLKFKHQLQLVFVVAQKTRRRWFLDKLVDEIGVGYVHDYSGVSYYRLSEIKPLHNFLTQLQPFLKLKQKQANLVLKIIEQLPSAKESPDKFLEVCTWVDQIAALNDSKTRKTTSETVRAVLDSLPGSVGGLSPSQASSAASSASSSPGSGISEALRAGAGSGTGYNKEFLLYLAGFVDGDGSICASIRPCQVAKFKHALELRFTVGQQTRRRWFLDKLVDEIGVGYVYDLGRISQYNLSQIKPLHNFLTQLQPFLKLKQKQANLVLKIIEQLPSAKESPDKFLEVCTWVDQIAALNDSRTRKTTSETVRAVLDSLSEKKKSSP
Excerpt: as §1, §3

LOX 3-4m.1782 = target: T8, LOX 3-4m.1782 (artificial (I-CreI derived))
T8 chain: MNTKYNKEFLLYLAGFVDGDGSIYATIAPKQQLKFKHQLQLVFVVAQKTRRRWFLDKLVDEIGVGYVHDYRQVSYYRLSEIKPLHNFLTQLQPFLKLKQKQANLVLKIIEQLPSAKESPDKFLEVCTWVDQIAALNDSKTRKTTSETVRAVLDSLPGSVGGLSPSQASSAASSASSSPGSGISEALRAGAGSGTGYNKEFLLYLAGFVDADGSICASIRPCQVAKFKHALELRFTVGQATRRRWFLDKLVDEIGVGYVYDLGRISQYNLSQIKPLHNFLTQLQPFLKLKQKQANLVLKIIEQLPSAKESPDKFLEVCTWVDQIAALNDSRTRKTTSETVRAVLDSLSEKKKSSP
Excerpt: as §1, §3

LOX 3-4 M.15 = target: T9, LOX 3-4 M.15 (artificial (I-CreI derived))
T9 chain: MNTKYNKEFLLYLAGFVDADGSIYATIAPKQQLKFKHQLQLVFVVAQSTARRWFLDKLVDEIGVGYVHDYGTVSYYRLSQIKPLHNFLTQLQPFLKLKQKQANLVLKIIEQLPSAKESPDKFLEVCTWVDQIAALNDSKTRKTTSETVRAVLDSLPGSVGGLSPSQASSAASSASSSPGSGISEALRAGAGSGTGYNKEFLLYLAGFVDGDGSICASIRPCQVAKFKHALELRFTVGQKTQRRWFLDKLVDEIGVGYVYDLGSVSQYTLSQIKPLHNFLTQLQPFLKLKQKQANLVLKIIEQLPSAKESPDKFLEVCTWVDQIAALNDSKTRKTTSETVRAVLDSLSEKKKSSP
Excerpt: as §1
as §2, with “first” for “first subunit and one or more positions in the second”, “GTAA” for “GCAT”, “358)” for “292)”, “1.” for “1. The substitutions in each subunit are provided in Tables 151 and 152, respectively.”, “were capable of cleaving” for “continued to cleave”

LOX 3-4 M.23 = target: T10, LOX 3-4 M.23 (artificial (I-CreI derived))
T10 chain: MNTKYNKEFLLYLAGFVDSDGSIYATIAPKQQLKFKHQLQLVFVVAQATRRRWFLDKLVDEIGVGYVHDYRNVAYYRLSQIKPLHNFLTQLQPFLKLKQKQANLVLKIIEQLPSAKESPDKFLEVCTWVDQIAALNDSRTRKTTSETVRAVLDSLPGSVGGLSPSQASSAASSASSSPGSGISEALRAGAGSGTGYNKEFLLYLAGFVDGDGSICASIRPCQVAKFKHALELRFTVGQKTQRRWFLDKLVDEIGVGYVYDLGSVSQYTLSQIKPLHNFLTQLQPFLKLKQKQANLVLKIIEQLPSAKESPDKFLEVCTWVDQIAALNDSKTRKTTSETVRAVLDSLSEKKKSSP
Excerpt: as §1
as §2, with “first” for “first subunit and one or more positions in the second”, “GTAA” for “GCAT”, “358)” for “292)”, “1.” for “1. The substitutions in each subunit are provided in Tables 151 and 152, respectively.”, “were capable of cleaving” for “continued to cleave”

LOX 3-4 M.6 = target: T11, LOX 3-4 M.6 (artificial (I-CreI derived))
T11 chain: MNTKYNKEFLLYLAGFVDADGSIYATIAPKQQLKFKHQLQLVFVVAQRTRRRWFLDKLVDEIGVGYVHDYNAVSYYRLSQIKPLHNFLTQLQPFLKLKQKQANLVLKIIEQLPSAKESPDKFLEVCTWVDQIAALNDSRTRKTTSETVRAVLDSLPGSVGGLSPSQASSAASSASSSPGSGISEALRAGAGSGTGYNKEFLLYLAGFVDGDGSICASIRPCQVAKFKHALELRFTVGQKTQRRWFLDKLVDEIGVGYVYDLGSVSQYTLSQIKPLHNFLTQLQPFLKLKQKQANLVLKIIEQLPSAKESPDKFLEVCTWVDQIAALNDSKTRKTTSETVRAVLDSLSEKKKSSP
Excerpt: as §1
as §2, with “first” for “first subunit and one or more positions in the second”, “GTAA” for “GCAT”, “358)” for “292)”, “1.” for “1. The substitutions in each subunit are provided in Tables 151 and 152, respectively.”, “were capable of cleaving” for “continued to cleave”

B1: LOX 3-4 GCAT (dsDNA)
DNA 1: GTATAGCATGCATTATACGAAG
DNA 2: CTTCGTATAATGCATGCTATAC
In the case of B1, the activity (LOX 3-4m.1601) is reported as 10.9 % GFP, the activity (LOX 3-4m.1687) is reported as 10.9 % GFP and the activity (LOX 3-4m.1679) is reported as 10.8 % GFP. For the same binder, the activity (LOX 3-4m.1689) was 11.2 % GFP.

B2: LOX 3-4 GCGA (dsDNA)
DNA 1: GTATAGCATGCGATATACGAAG
DNA 2: CTTCGTATATCGCATGCTATAC
Work on B2 yielded an activity (LOX 3-4m.1781) of 6.58 % GFP, an activity (LOX 3-4m.1745) of 5.13 % GFP and an activity (LOX 3-4m.1780) of 6.53 % GFP. For the same binder, the activity (LOX 3-4m.1782) was 5.45 % GFP.

B3: LOX 3-4 GTAA (dsDNA)
DNA 1: GTATAGCATGTAATATACGAAG
DNA 2: CTTCGTATATTACATGCTATAC
B3 was tested, and the activity (LOX 3-4 M.15) was 11.5 % GFP, the activity (LOX 3-4 M.23) was 13.2 % GFP and the activity (LOX 3-4 M.6) was 11.4 % GFP.
